± gives the standard error. This sample holds only a part of the variants without activity.
B1: glmS ribozyme (parent)
chain: AUAAAAGCGCCAGAACUACAGAAAUGUAGUUGACGAGGAGGAGGUUUAUCGAAUUUUCGGCGGAUGCCUCCAAA

Variants of: B1
Experiment: self-cleavage kobs at 10000 uM GlcN6P; higher = faster cleavage; RNA array
Details: with glucosamine-6-phosphate
How it was run: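 Ribozyme variants carrying barcodes were transcribed in situ on sequenced MiSeq chips by E. coli RNA polymerase and tracked at 37 °C with a hybridised Cy3 probe. They were exposed to 40 μM to 10 mM glucosamine-6-phosphate in HEPES/KCl/Mg(OAc)2 buffer. kobs came from exponential decay fits of normalised per-tile medians, and kcat and KM from weighted Michaelis–Menten fits.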
AUAAAACCGCCAGAACUACAGAAAUGUAAUUGACGAGGAGGAGGUUUAUCGAAUUUUCGGCGGAUGCCUCCAAA [G7C G29A] was tested, and the “self-cleavage kobs at 10000 uM GlcN6P” value was less than 1e-05 s⁻¹.
For AUAAAAGCGCCAGAAAUACAGAAAUGUAGUUUUCGAGGAGGAGGUUUAUGGAAUUUUCGGCGGAUGUCUCCAAA [C16A G32U A33U C50G C67U], the “self-cleavage kobs at 10000 uM GlcN6P” value was 0.000275 ± 9.8e-05 s⁻¹.
AUAAAAGCGCCAGAACUACAGAAAUGUAGUUGCCGAUGAGGAGGUUUAUCGAAUUUUCGGCGGAUGCCUGCAAA [A33C G37U C70G] was tested, and the “self-cleavage kobs at 10000 uM GlcN6P” value was less than 1e-05 s⁻¹.
AUAAAAGCGCCAGAACUACAGAAAUGUAGUUGACGACGAGGAGGUUUAUCGAAUUUUCGGCGGCUGGCUCCAAA [G37C A64C C67G] was tested, and the “self-cleavage kobs at 10000 uM GlcN6P” value was less than 1e-05 s⁻¹.
In the case of AUAAAAGCGCCAGAUCUACAGAAAUGUAGUUGACGAGGAGGAGUUUUAUCGAAUUUUCGGCGGAUGCCUCCAAA [A15U G44U], the “self-cleavage kobs at 10000 uM GlcN6P” value is reported as 3.08e-05 ± 1.4e-05 s⁻¹.
UGGAAAGGGCCAGAACUACAGAAAUGUAGUUGAGGAGGAGGAGGUUUAUCGAAUUUUCGGCGGAUGCCUCCAAA [A1U U2G A3G C8G C34G] was tested, and the “self-cleavage kobs at 10000 uM GlcN6P” value was less than 1e-05 s⁻¹.
AUAAAAGCGCCAGAAAUACAGAAAUGUAGUUGACCAGGAGGAGGUUUAUCGAAUUUUCGGCGGAGGCCUCCAAA [C16A G35C U65G] was tested, and the “self-cleavage kobs at 10000 uM GlcN6P” value was less than 1e-05 s⁻¹.
With AUAAAAGCGCCAGAACUACAGAAAUGUAGUUAACGAGGAGGAGGUUGAUCGGAUUUUCGGGGGAUGCCUCGAAA [G32A U47G A52G C61G C71G] the “self-cleavage kobs at 10000 uM GlcN6P” value was 6.89e-05 ± 2.1e-05 s⁻¹.
With AUAAAAGCUCCAGAACUACAGAAAUGUAGCUAACGAGGAGGAGGUUUAUCGAAUUUUCGGCGGAUGCCUCCAAA [G9U U30C G32A] the “self-cleavage kobs at 10000 uM GlcN6P” value was less than 1e-05 s⁻¹.
In the case of AUAAAAGCGCCAGAACUACAGAAAUGUAGUUGACGAGGAGGAGGUUUAUUGAAUUUUCCGCGGGUGCCUCUAAA [C50U G59C A64G C71U], the “self-cleavage kobs at 10000 uM GlcN6P” value is reported as less than 1e-05 s⁻¹.
For AUAAAAGCGCCAGAACUACAGAAAUGUAGUUGACGUGGAGGAGGUUUAACGAAUUUUCGGCGGAUGCCUCCAAA [A36U U49A], the “self-cleavage kobs at 10000 uM GlcN6P” value was 8.19e-05 ± 9.1e-06 s⁻¹.
In the case of AUAAAAGCGCCUGAACUACAGAAAUGUAGUUGAAGAGGUGGAGGUUUAUCGAAUUUUCGGCGGAUGCCUUCAAA [A12U C34A A39U C70U], the “self-cleavage kobs at 10000 uM GlcN6P” value is reported as less than 1e-05 s⁻¹.
AUAAAAGCGCCAGAACUCCAGAAAUGUAGUUGACGAGAAGGAGGUUUAUUGAAUUUUUUGCGGAUGCCUCCAAA [A18C G38A C50U C58U G59U] was tested, and the “self-cleavage kobs at 10000 uM GlcN6P” value was less than 1e-05 s⁻¹.
For AUAAAAGCGCCAGAACUACAGAAAUGUAGUUGACGAGGAGGAGGUUUAUCUAACUUUCGGCGGAUUCCUCCAAA [G51U U54C G66U], the “self-cleavage kobs at 10000 uM GlcN6P” value was less than 1e-05 s⁻¹.
In the case of AUAAAAGCGCCAGACCUACAGAAAUGUAGUUGACGAGGAGGAGGUUUAUCGAUUUUUCGGCGGAUGCCUCGAAA [A15C A53U C71G], the “self-cleavage kobs at 10000 uM GlcN6P” value is reported as 0.000151 ± 3.6e-05 s⁻¹.
With AUAAAAGCGCCCGAACUACAGAAAUGUAGAUGACGAGGAGGAGGUUAAUCUAAUUUUCGGCGGAUGCCUCCAAA [A12C U30A U47A G51U] the “self-cleavage kobs at 10000 uM GlcN6P” value was less than 1e-05 s⁻¹.
For AUAAAAGCGCCAGAACUACAGAAAUGUAGUUGACGAGGAGGAGGUUUAUCGAAUUUUCGGCGGGUGCCCCCAAA [A64G U69C], the “self-cleavage kobs at 10000 uM GlcN6P” value was 0.000688 ± 0.00018 s⁻¹.
With AUAAAUGCGCCAGAACUACAGAAAUGUAGUUGACGAGGAGGAGGUUUAUCGACUUUUCGGCGGAUGCCUCCAAA [A6U A53C] the “self-cleavage kobs at 10000 uM GlcN6P” value was 5.75e-05 ± 9.2e-06 s⁻¹.
With AUAAAAGCGCCAGAACUACAGAAAUGUAGUUGACGAGGGGGAGGGUUAUCGAAUUUUCGGCGGAUGCCUACAAA [A39G U45G C70A] the “self-cleavage kobs at 10000 uM GlcN6P” value was 0.000127 ± 4.2e-05 s⁻¹.
For AUAAAACCGUCAGAACUACAGAAAUGUAGUUGACGAGGAGGAGGUUUAUCGAAUUUUCGUCGGAUGCCUCCAAA [G7C C10U G60U], the “self-cleavage kobs at 10000 uM GlcN6P” value was less than 1e-05 s⁻¹.
AUAAAAGCGCCAGAACUACAGAAAUGUAGGUGACGGGGAUGAGGUUUAUCGAAUUUUCGGCGGAUGCAUCCAAA [U30G A36G G40U C68A] was tested, and the “self-cleavage kobs at 10000 uM GlcN6P” value was less than 1e-05 s⁻¹.
With AUAAAAGGGCCAGAACUACAGAAAUGUAGUUGACGAGGAGGACGUUUAUUGAAUUUUCGGCGGAUGCCUCCAAA [C8G G43C C50U] the “self-cleavage kobs at 10000 uM GlcN6P” value was less than 1e-05 s⁻¹.
For AUAAAAGCGCCAGAACUACAGAAAUGUACUUGACGAGGAGGAGGUUUAUCGAAUUUUCGGGGGAUGGCUCCAAA [G29C C61G C67G], the “self-cleavage kobs at 10000 uM GlcN6P” value was less than 1e-05 s⁻¹.
In the case of AUAAAAGCGCCAGAACUACAGAAAUGUAGUUGACGAGUAUCAGGUUCAUCGAAUUUUCCGCGGAUGCGUCCAAA [G38U G40U G41C U47C G59C C68G], the “self-cleavage kobs at 10000 uM GlcN6P” value is reported as less than 1e-05 s⁻¹.
In the case of AUAAAAGCGCCAGCACUACAGAAAUGUAGUUGACGAGGAGCAGGUUUAUCGAAUUUUCGGCGGAUGCCUCCAAA [A14C G41C], the “self-cleavage kobs at 10000 uM GlcN6P” value is reported as 3.51e-05 ± 1.1e-05 s⁻¹.
With AUAAAACCGCCAGAACUACAGAAAUGUAGUUGACGAGGAGAAGGUUUAUCGAAUUUUCGGUGGAUGCCUCCAAA [G7C G41A C61U] the “self-cleavage kobs at 10000 uM GlcN6P” value was less than 1e-05 s⁻¹.
In the case of AGAAAAGCGCCAGAACUACAGAAAUGUAGUUGACGAGGAGGAGGUUCAUCGAAUUUUCGGCGGAUGCCUCCAAA [U2G U47C], the “self-cleavage kobs at 10000 uM GlcN6P” value is reported as 0.00421 ± 0.0012 s⁻¹.
For AUAAAAGCGCCAGAACUACAGAAAUGUAGUUGACGAGGAGAAGGCUUAUCGAUUUUUCGGCGGAUGCCUCCAAA [G41A U45C A53U], the “self-cleavage kobs at 10000 uM GlcN6P” value was 0.000355 ± 8.4e-05 s⁻¹.
For AUAAAAGCGCCAGAACUACAGAAAUGUAGUUGACGAGGAGAAGGUUUAUCGAAUUCUCGGCGGAUGCCUCCAAA [G41A U56C], the “self-cleavage kobs at 10000 uM GlcN6P” value was 3.52e-05 ± 1.7e-05 s⁻¹.
For AUAAAAGCGCCAGAGCUACAGAAAUGUAGUUGACGAGGAGGAGGUUUAUCGAAUUUUCGGCGGACGUCUCCAAA [A15G U65C C67U], the “self-cleavage kobs at 10000 uM GlcN6P” value was 7.42e-05 ± 1.7e-05 s⁻¹.
With AUAAAAGCGCCAGAACUACAGAAAUGUAGUUGACGAGGAGGAGGUUUAUCGAAUUUUCCGCGCAUGCCUCCAAA [G59C G63C] the “self-cleavage kobs at 10000 uM GlcN6P” value was less than 1e-05 s⁻¹.
With AUAAAAGCGCCAGAACUACAGAAAUGUAGUUGACGAGGAGGAGGUUUACCUAAUUUUCGGCGGAUGCCUGCAAA [U49C G51U C70G] the “self-cleavage kobs at 10000 uM GlcN6P” value was less than 1e-05 s⁻¹.
AUAAAAGCGCCAGUACUACAGAAAUGUAGUUGACGAGGAGGAGGUUUCUCGAAUUGUCGGCGGAUGCAUCCAAA [A14U A48C U56G C68A] was tested, and the “self-cleavage kobs at 10000 uM GlcN6P” value was less than 1e-05 s⁻¹.
AUAAAAGCGCGGGAACUACAGAAAUGUAGUUCACGAGGAGGAGGUUUAUCGAAUUUCCGGCGGAUGCCUCCAAA [C11G A12G G32C U57C] was tested, and the “self-cleavage kobs at 10000 uM GlcN6P” value was less than 1e-05 s⁻¹.
For AUAAAAGCGCGAGAACUACAGAAAUGUAGUUGACCAGGAGGAGGUUUAUCGAAUUUUCGGCGUAUGACUCCAAA [C11G G35C G63U C67A], the “self-cleavage kobs at 10000 uM GlcN6P” value was less than 1e-05 s⁻¹.
For AUAAAAGCGCCAGAACUACAGAAAUGUAGUUGACGUGGAGGACGUUUAUCGAACCUUCGGCGCAUGCCUCAAAA [A36U G43C U54C U55C G63C C71A], the “self-cleavage kobs at 10000 uM GlcN6P” value was less than 1e-05 s⁻¹.
AUAAAAGCGCCAGGACUACAGAAAUGUAGUUGACGAGGAGGAUGUUAAUCGAAUUUUAGGCGGAUGACUCCAAA [A14G G43U U47A C58A C67A] was tested, and the “self-cleavage kobs at 10000 uM GlcN6P” value was 7.13e-05 ± 1.3e-05 s⁻¹.
